Measurements taken from US20240254227A1 (Alector, published 2024).

T1: murine CD300F stably expressed on Jurkat cells (mouse, UniProt Q6SJQ7 20-337)
T1 construct: also called muCD300F
T1 sequence: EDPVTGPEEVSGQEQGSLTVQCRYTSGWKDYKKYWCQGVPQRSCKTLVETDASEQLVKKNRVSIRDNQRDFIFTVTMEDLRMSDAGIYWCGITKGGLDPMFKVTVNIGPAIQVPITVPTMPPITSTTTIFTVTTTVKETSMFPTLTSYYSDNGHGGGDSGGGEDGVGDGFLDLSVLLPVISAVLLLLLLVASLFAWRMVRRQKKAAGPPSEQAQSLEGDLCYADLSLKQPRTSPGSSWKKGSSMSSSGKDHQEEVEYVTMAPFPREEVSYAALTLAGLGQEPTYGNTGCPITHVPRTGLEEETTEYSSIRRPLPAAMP

T2: murine CD300D-Fc (mouse)
T2 construct: mouse IgG2a-Fc fusion (R&D Systems); the entry is the whole fusion chain; also called mCD300D; Mouse CD300D-Fc
T2 chain: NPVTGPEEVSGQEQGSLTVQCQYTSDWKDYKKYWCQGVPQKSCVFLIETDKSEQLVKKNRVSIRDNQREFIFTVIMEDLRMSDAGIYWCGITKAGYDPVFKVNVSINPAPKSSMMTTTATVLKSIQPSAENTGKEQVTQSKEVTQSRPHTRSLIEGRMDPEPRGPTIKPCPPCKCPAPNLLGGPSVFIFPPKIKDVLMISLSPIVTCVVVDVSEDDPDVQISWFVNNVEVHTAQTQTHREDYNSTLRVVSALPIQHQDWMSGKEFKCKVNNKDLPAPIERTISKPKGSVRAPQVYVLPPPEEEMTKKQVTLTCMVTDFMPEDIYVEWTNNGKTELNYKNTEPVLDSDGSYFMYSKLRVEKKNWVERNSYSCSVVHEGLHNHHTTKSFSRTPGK

T3: human CD300LB on primary human monocytes (human, UniProt A8K4G0 18-201)
T3 construct: Endogenous protein on primary cells; that the target is CD300LB is inferred from the antibodies being anti-CD300LB antibodies; also called Monocyte donor 1281; Monocyte donor 1282
T3 sequence: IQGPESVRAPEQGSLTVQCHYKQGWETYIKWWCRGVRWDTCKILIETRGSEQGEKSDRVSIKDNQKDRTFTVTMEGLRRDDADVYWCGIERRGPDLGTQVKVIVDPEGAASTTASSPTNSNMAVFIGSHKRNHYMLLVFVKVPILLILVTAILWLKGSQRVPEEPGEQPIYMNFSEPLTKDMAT

T4: human CD300LB on primary human macrophages (human, UniProt A8K4G0 18-201)
T4 sequence: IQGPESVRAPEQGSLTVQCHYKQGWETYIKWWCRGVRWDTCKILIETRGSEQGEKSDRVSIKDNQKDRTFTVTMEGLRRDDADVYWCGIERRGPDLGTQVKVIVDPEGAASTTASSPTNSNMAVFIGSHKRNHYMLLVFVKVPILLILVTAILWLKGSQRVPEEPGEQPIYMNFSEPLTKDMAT


Legend:
[1] = biological target: T1, murine CD300F stably expressed on …; experiment: flow cytometry, stable Jurkat cells, 10 ug/mL, isotype subtracted
Experimental: Purified anti-CD300LB antibodies of the present disclosure were analyzed for cross-reactivity to other murine CD300 family members stably expressed in Jurkat cells (generation of which is described above). Cells were counted and labeled with 200 nM CFSE, 500 nM VioBlue, or a combination of the two to discriminate between muCD300LB, Parental cells, CD300F, and the other CD300 family members. Cells were washed thoroughly with PBS containing 2% fetal bovine serum then resuspended at a total of 240,000 cells per well. Purified antibodies at 10 μg/mL were added and incubated for one hour before the cells were washed twice again and stained with an APC-labeled anti-mouse secondary. Cells were then analyzed using a BD FACSCanto II. Antibodies were analyzed for specific binding to muCD300LB by FlowJo software by gating on live cells, then the APC gMFI calculated for each labeled population by subtracting the gMFI of the isotype control. The gMFI results of the analysis are presented below in Table 4.

[2] = biological target: T2, murine CD300D-Fc; experiment: SPR (Carterra LSA), antibody immobilised, Fc fusion at 300 or 600 nM
[3] = biological target: T3, human CD300LB on primary human monocytes; experiment: flow cytometry, primary human monocytes donor 1282, 10 ug/mL antibody, isotype control subtracted
Experimental: (§1) Human monocytes from various donors were isolated from whole blood using RosetteSep Human Monocyte Enrichment Cocktail (Stemcell technologies) and Ficoll centrifugation per manufacturer protocols. After lysing red blood cells with ACK lysing buffer, monocytes were resuspended in complete media (RPMI, 10% FBS, Pen/Strep, L-glutamine, HEPES, non-essential amino acid, Sodium pyruvate). To obtain macrophages from these isolated monocytes, 100 ng/ml human M-CSF and 8% v/v human serum were added to the cells for 5-7 days. Cells were counted on the day of the experiment and plated at 100,000 cells per well in a round-bottom 96 well plate. Cells were incubated with TruStain Fc block and 10 μg/mL antibody for 1 hour on ice before washing with 250 μL ice cold PBS twice. Cells were then incubated with the appropriate APC-conjugated secondary antibodies for 20 minutes in the dark on ice. Finally, cells were washed twice with ice cold FACS buffer and then resuspended in 100 μL FACS buffer containing 1% propidium iodide. Samples were immediately analyzed using a BD FACSCanto flow cytometer. The gMFI was calculated using FlowJo software minus the gMFI of the appropriate isotype control.

[4] = biological target: T3, human CD300LB on primary human monocytes; experiment: flow cytometry, primary human monocytes donor 1284, 10 ug/mL antibody, isotype control subtracted
Experimental: as §1

[5] = biological target: T4, human CD300LB on primary human …; experiment: flow cytometry, primary human macrophages donor 1275, 10 ug/mL antibody, isotype control subtracted
Experimental: as §1

[6] = biological target: T4, human CD300LB on primary human …; experiment: flow cytometry, primary human macrophages donor 1277, 10 ug/mL antibody, isotype control subtracted
Experimental: as §1

Row | gMFI [1] | SPR binding (control subtracted) [2] | gMFI [3] | gMFI [4] | gMFI [5] | gMFI [6] | Binder
1 | 2.35 gMFI | -0.1 | – | – | – | – | anti-CD300LB antibody CD-11 (antibody, V domains shown) VH: QIQLVQSGPEVKKPGETVKISCKASGYTLTDYSMHWVMQTPGTGLKWMAWMNTETGEPTYADDFKGRFAFSLETSAGTAYLQIDNLKNEDTATYFCATYGKSYGMKYWGQGTSVTVSS VL: DIVLTQSPPSLAVSLGQRATISCRATKSVSPYLHWYQQTPGQPPKLLIYLASNLDSGVPARFSGSGSGTDFTLNIHPVEEEDAATYYCQHNKELPPTFGGGTRLEIK
2 | – | – | 468 gMFI | -189 gMFI | 2700 gMFI | 3790 gMFI | anti-CD300LB antibody CD-07 (antibody, V domains shown) VH: QVQLVQSGAEVKKPGASVKVSCKASGYTFTNYRMHWVRQAPGQGLEWMGWINPNSGGTIYAQKFQGRVTMTRDTSTSTVYMELSSLRSEDTAVYYCARDLDYWGQGTLVTVSS VL: DIQMTQSPSSLSASVGDRVTITCQASQDISNYLNWYQQKPGKAPKLLIYGASSLQSGVPSRFSGSGSGTDFTLTISSLQPEDFATYYCQQSYSTPWTFGPGTKVEIK
3 | – | – | 3440 gMFI | 1010 gMFI | 26900 gMFI | 24000 gMFI | anti-CD300LB antibody CD-06 (antibody, V domains shown) VH: QVQLVQSGAEVKKPGASVKVSCKASGYTFTTYAVHWVRQAPGQGLEWMGIVNPNSGGTNYAQKFQGRVTMTRDTSTSTVYMELSSLRSEDTAVYYCARDIVPMNNFYNYYYGMDVWGQGTTVTVSS VL: DIQMTQSPSSLSASVGDRVTITCRASQSISSYLNWYQQKPGKAPKLLIYATSTLQSGVPSRFSGSGSGTDFTLTISSLQPEDFATYYCQQSYRIPYTFGQGTKVEIK
4 | – | – | 1560 gMFI | 166 gMFI | 61000 gMFI | 68600 gMFI | anti-CD300LB antibody CD-05 (antibody, V domains shown) VH: QVQLVQSGAEVKKPGASVKVSCKASGYTFSRYYINWVRQAPGQGLEWMGWINPNSGGTNYAQKFQGRVTMTRDTSTSTVYMELSSLRSEDTAVYYCTTDQLRFGKTGPYYGMDVWGQGTTVTVSS VL: DIQMTQSPSSLSASVGDRVTITCRASQNIGTYLNWYQQKPGKAPKLLIYAASSLQSGVPSRFSGSGSGTDFTLTISSLQPEDFATYYCQQSYSDTLTFGGGTKVEIK
5 | 2.1 gMFI | 0.6 | – | – | – | – | anti-CD300LB antibody CD-12 (antibody, V domains shown) VH: QIQLVQSGPELKKPGETVKISCKASGYTFTDYSMHWVRQAPGKGLKWMAWINTETGEATHADDFKGRFDFSLDTSASTAYLQIKNLKNEDTGIYFCVCYGSSYGMDYWGQGTSVTVSS VL: DIVLTQSPASLPVSLGQRATISCRASKSVRTSGASYMHWYQQKPGQPPKLLIYLASNLKSGVPTRFSGSGSGTDFTLNIHPVEEEDAATYYCQHNREVPPTFGGGTKLEIK
6 | 1.85 gMFI | 1.7 | – | – | – | – | anti-CD300LB antibody CD-15 (antibody, V domains shown) VH: QIQLVQSGPELKKPGETVKISCQVSGYTFTDYSMHWLKQAPGKGLKWMAWINTETGESTYTDEFKGRFVFSLETSVRTAYLKINNLKNEDTATYFCGTYGSSYGMAYWGQGTSVTVSS VL: DIVLTQSPASLPVSLGQRATISCRASKSVSTSGSSYLHWYQQKPGQPPKLLIYLASKLESGVPARFRGSGSGTDFTLNIHPVEEEDAATYYCQHNREVPPTFGGGTKLEIK
7 | 1.7 gMFI | 0.8 | – | – | – | – | anti-CD300LB antibody CD-17 (antibody, V domains shown) VH: QIQLVQSGPELKKPGETVKISCKASGYTLTDYSMHWVKQAPGKGLKWMGWINTETGEPRYGDDFKGRFAFSLETSASSAYLQINNLKNDDTATYFCATYGRSYGMDFWGQGTSVTVSS VL: DIVLTQSPASLAVSLGQRATISCRASKSVSPSGHSYMHWYQQKPGQPPKLLIYLASNLKSGVPARFSGSGSGTDFTLNIHPVEEGDAATYYCQHNRELPPTFGGGSKLEIK
8 | 6.6 gMFI | 0.6 | – | – | – | – | anti-CD300LB antibody CD-18 (antibody, V domains shown) VH: DVQLQESGPDLVKPSQSLSLTCTVTGYSITSGYSWHWIRQFPDNKLEWMGYILSRGDTNFNPSLKSRISITRSTSNNQFFLHFNSVTTEDTATYYCARDFFDYWGQGTTLTVSS VL: DVLMTQTPLSLPVSLGDQASISCRSSQSIVHSNGNTYLEWYLQKPGQSPKLLIYKVSDRFSGVPDRFSGSGSGTDFTLKISRVEAEDLGVYFCFQGSHVPYTFGGGTKLEIK
